Measurements reported in patent US20090227507A1, “Angiotensin (1-7) Dosage Forms and Uses Thereof” (UNIVERSITY OF SOUTHERN CALIFORNIA, priority 2008, published 2009).

What was measured:
[1] = Renal laboratory values (serum creatinine, creatinine clearance, 24-hour urine) in healthy men; conditions: human, in vivo
Description: USB003 was administered SC in the abdomen by a qualified study staff member 24 hours after the previous (Day 6) injection.
Blood, urobilinogen, ketones, glucose, protein, microscopic examination of sediment, sodium, and potassium.

[2] = Clinical chemistry in healthy men; conditions: for Potassium shift H-N, number of subjects / Potassium shift L-N, number of subjects / Potassium shift N-H, number of subjects / Potassium shift N-L, number of subjects: Chemistry; for AST/SGOT High/Low Normal/Abnormal: Subject 027, 200 μg/kg
Description: Safety evaluations are based on AEs, PEs, vital signs, temperature, and laboratory results from baseline to study completion. Laboratory measurements were conducted by a local clinical laboratory. Using standard procedures, blood samples were drawn or urine collected from subjects for the following laboratory tests:
Aspartate aminotransferase (AST), alanine aminotransferase (ALT), gamma, glutamyltranferase (GGT), creatinine, creatine kinase, sodium, potassium, bicarbonate (CO2), chloride, glucose, magnesium, calcium, inorganic phosphorous, blood urea nitrogen (BUN), total protein, albumin, total bilirubin, direct and indirect bilirubin, uric acid, and alkaline phosphatase,

lymphocyte numbers = test: Lymphocyte recovery after subcutaneous TXA127 in subjects without HIV infection (breast cancer subjects receiving chemotherapy); assay type: in vivo; conditions: human subjects without HIV infection (e.g., breast cancer subjects receiving cancer chemotherapy)
Text: In the absence of effective antiretroviral therapy, HIV disease is characterized by the relentless destruction of CD4+ T-lymphocytes resulting in disordered and declining immune function.

[3] = 200 μg/kg, N = 9, baseline to Day 8
[4] = 300 μg/kg, N = 8, baseline to Day 8

Asp-Arg-Val-Tyr-Ile-His-Pro [USB003]
Creatinine Clearance shift L-N, number of subjects ([1]; 200 ug/kg): 3 | creatinine clearance ([1]; 200 ug/kg): increase | subjects with creatinine clearance shifted from low to normal ([1]; 200 ug/kg): 3 of the 9 | Creatinine Clearance shift L-N, number of subjects ([1]; 300 ug/kg): 2 | Creatinine Clearance shift N-L, number of subjects ([1]; 300 ug/kg): 1 | increase in creatinine clearance ([1]; 300 ug/kg): not observed | subjects with creatinine clearance shifted from low to normal ([1]; 300 ug/kg): 2 of the 8 | ALT (SGPT) shift H-N, number of subjects [2, 3]: — (“—” = 0) | ALT (SGPT) shift L-N, number of subjects [2, 3]: — (“—” = 0) | ALT (SGPT) shift N-H, number of subjects [2, 3]: 1 | ALT (SGPT) shift N-L, number of subjects [2, 3]: — (“—” = 0) | AST (SGOT) shift H-N, number of subjects [2, 3]: — (“—” = 0) | AST (SGOT) shift L-N, number of subjects [2, 3]: — (“—” = 0) | AST (SGOT) shift N-H, number of subjects [2, 3]: 1 | AST (SGOT) shift N-L, number of subjects [2, 3]: — (“—” = 0) | BUN shift H-N, number of subjects [2, 3]: — (“—” = 0) | BUN shift L-N, number of subjects [2, 3]: 1 | BUN shift N-H, number of subjects [2, 3]: — (“—” = 0) | BUN shift N-L, number of subjects [2, 3]: — (“—” = 0) | Magnesium shift H-N, number of subjects [2, 3]: — (“—” = 0) | Magnesium shift L-N, number of subjects [2, 3]: — (“—” = 0) | Magnesium shift N-H, number of subjects [2, 3]: — (“—” = 0) | Magnesium shift N-L, number of subjects [2, 3]: 1 | Total CPK shift H-N, number of subjects [2, 3]: 1 | Total CPK shift L-N, number of subjects [2, 3]: — (“—” = 0) | Total CPK shift N-H, number of subjects [2, 3]: — (“—” = 0) | Total CPK shift N-L, number of subjects [2, 3]: — (“—” = 0) | ALT, Subject 009 ([2]; 200 μg/kg, Day 8): 103 IU/L | AST, Subject 009 ([2]; 200 μg/kg, Day 8): 66 IU/L | ALT, Subject 009 ([2]; 200 μg/kg, Day 14): 61 IU/L | AST, Subject 009 ([2]; 200 μg/kg, Day 14): 29 IU/L | ALT (SGPT) shift H-N, number of subjects [2, 4]: — (“—” = 0) | ALT (SGPT) shift L-N, number of subjects [2, 4]: — (“—” = 0) | ALT (SGPT) shift N-H, number of subjects [2, 4]: — (“—” = 0) | ALT (SGPT) shift N-L, number of subjects [2, 4]: — (“—” = 0) | AST (SGOT) shift H-N, number of subjects [2, 4]: — (“—” = 0) | AST (SGOT) shift L-N, number of subjects [2, 4]: — (“—” = 0) | AST (SGOT) shift N-H, number of subjects [2, 4]: — (“—” = 0) | AST (SGOT) shift N-L, number of subjects [2, 4]: — (“—” = 0) | BUN shift H-N, number of subjects [2, 4]: — (“—” = 0) | BUN shift L-N, number of subjects [2, 4]: 1 | BUN shift N-H, number of subjects [2, 4]: — (“—” = 0) | BUN shift N-L, number of subjects [2, 4]: — (“—” = 0) | Magnesium shift H-N, number of subjects [2, 4]: — (“—” = 0) | Magnesium shift L-N, number of subjects [2, 4]: 1 | Magnesium shift N-H, number of subjects [2, 4]: — (“—” = 0) | Magnesium shift N-L, number of subjects [2, 4]: — (“—” = 0) | Total CPK shift H-N, number of subjects [2, 4]: — (“—” = 0) | Total CPK shift L-N, number of subjects [2, 4]: — (“—” = 0) | Total CPK shift N-H, number of subjects [2, 4]: — (“—” = 0) | Total CPK shift N-L, number of subjects [2, 4]: — (“—” = 0) | Potassium shift H-N, number of subjects [2, 3]: — (“—” = 0) | Potassium shift L-N, number of subjects [2, 3]: — (“—” = 0) | Potassium shift N-H, number of subjects [2, 3]: — (“—” = 0) | Potassium shift N-L, number of subjects [2, 3]: — (“—” = 0) | Potassium shift H-N, number of subjects [2, 4]: 1 | Potassium shift L-N, number of subjects [2, 4]: — (“—” = 0) | Potassium shift N-H, number of subjects [2, 4]: — (“—” = 0) | Potassium shift N-L, number of subjects [2, 4]: 1 | AST/SGOT High/Low Normal/Abnormal ([2]; Day 7 U (unscheduled)): N | AST/SGOT High/Low Normal/Abnormal ([2]; Day 8): N | mean change from baseline on any serum chemistry evaluations ([2]; baseline to Day 4 or Day 8): no notable effects | lymphocyte numbers following subcutaneous injection (lymphocyte numbers): dramatic recovery of lymphocyte numbers
